Assay results published in US20060134709A1.
Values belong to the substance of their own block, whether it stands above or below them.

Columns and labels:
C1q = assay: BIAcore; 2B6 captured on soluble CD32B (2bLAvi) on a CM-5 chip, C1q injected
[1] = molecular target: soluble FcγRIIIA tetrameric complex (human) (UniProt P08637); assay: FACS titration of tetramer, 1.4 to 0.0006 µM
[2] = molecular target: soluble monomeric FcγRIIIA-linker-AVITAG (human) (UniProt P08637); assay: ELISA
[3] = molecular target: FcγRIIB-Fc fusion protein (human) (UniProt P31994); assay: BIAcore
[4] = molecular target: soluble monomeric FcγRIIIA-linker-AVITAG (human) (UniProt P08637); assay: BIAcore
[5] = molecular target: soluble monomeric FcγRIIIA-linker-AVITAG (human) (UniProt P08637); assay: ELISA of FcγRIIIA binding; OD listed beside the sensorgrams
[6] = molecular target: FcγRIIB-Fc fusion protein (human) (UniProt P31994); assay: ELISA of FcγRIIB-Fc binding; OD listed beside the sensorgrams
[7] = molecular target: FcγRIIB-Fc fusion protein (human) (UniProt P31994); assay: BIAcore: ch4-4-20 captured on BSA-FITC, FcγRIIB-Fc at two concentrations, separate fits, average of the two
[8] = molecular target: soluble monomeric FcγRIIIA-linker-AVITAG (human) (UniProt P08637); assay: BIAcore: ch4-4-20 captured on BSA-FITC, FcγRIIIA at 200 nM and 800 nM, separate fits, average of the two concentrations
[9] = molecular target: FcγRIIB-Fc fusion protein (human) (UniProt P31994); assay: ELISA
[10] = molecular target: FcγRIIB-Fc fusion protein (human) (UniProt P31994); assay: BIAcore; remark: listed apart in the source
monomeric human IgG [11] = assay: ELISA
monomeric human IgG [12] = assay: direct ELISA on plate-coated human IgG, detection with DJ130c and anti-mouse peroxidase

Chain of soluble monomeric FcγRIIIA-linker-AVITAG (human) (P08637 17-203 F176V limits assumed, form in doubt): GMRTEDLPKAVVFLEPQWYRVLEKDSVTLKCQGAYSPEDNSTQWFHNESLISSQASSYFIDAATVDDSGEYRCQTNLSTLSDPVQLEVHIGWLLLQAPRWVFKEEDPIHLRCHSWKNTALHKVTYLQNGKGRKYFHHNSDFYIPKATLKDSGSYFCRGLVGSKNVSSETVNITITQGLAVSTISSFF
Chain of C1q (P02745 23-245, chain 1 of 3): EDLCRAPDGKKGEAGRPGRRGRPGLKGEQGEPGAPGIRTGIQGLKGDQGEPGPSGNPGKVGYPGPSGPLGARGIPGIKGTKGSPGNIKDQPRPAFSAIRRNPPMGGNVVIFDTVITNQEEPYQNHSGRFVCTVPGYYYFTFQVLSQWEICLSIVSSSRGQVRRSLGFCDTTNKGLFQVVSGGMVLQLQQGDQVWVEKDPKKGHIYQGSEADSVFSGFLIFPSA
Chain of C1q (P02746 28-253, chain 2 of 3, further chain): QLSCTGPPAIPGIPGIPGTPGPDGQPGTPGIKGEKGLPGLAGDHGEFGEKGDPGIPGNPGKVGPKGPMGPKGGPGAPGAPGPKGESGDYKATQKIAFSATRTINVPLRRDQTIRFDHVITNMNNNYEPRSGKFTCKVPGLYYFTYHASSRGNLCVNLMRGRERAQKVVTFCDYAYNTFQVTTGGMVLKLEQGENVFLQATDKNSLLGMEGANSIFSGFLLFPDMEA
Chain of C1q (P02747 29-245, chain 3 of 3, further chain): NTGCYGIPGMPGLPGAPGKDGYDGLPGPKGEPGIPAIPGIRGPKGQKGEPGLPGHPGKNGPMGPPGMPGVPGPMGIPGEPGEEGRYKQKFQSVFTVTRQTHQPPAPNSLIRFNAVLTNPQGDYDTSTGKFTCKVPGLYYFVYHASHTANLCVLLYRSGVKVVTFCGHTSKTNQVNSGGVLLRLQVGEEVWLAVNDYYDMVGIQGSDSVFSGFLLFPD
Chain of FcγRIIB-Fc fusion protein (human) (P31994 43-217): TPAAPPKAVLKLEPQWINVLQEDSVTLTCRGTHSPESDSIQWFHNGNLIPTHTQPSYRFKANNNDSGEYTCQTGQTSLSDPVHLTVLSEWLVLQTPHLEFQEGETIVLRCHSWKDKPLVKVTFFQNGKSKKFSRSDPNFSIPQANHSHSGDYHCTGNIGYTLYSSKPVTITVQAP
Chain of soluble FcγRIIIA tetrameric complex (human) (P08637 17-203 F176V limits assumed, form in doubt, one chain of several): as the sequence (P08637 17-203 F176V limits assumed, form in doubt) above

Substance: 2B6 (panel FIG. 34B-1) (antibody)
koff (C1q): 0.13 s⁻¹

Substance: 2B6 (panel FIG. 34B-2) (antibody)
Kd (C1q): 7 nM
koff (C1q): 0.06 s⁻¹

Substance: Aga2p-CH1-CH3 fusion (pYD-CH1), wild type Fc on yeast
Kd [1]: 6 nM

Substance: ch4-4-20 F243L, R255L (antibody)
fold vs wt [2]: 1 x
Kd [3]: 74.7 nM
koff [3]: 0.09 s⁻¹
Kd [4]: 90 nM
koff [4]: 0.075 s⁻¹
ELISA, OD [5]: 0.37 OD
ELISA, OD [6]: 0.1 OD
Kd [7]: 82.3 nM
koff [7]: 0.1 s⁻¹
Kd [8]: 91.8 nM
koff [8]: 0.073 s⁻¹

Substance: ch4-4-20 K246I, K334N (antibody)
Kd [10]: 45.3 nM
ELISA, OD [5]: 0.75 OD
Kd [8]: 100 nM

Substance: soluble FcγRIIIA tetrameric complex (from UniProt P08637 17-203) (receptor)
fold avidity vs monomeric receptor (monomeric human IgG [11]): 8 to 10 fold
EC50 (read off the curve) (monomeric human IgG [12]): 1 µg/mL

Second part, the substance after the results:

ELISA, OD [9]: 1.55 OD
ELISA, OD [5]: 1 OD
Kd [8]: 84.8 nM
Substance: ch4-4-20 F372Y (antibody)

ELISA, OD [2]: 1.25 OD
Kd [3]: 108 nM
koff [3]: 0.107 s⁻¹
Kd [4]: 70.2 nM
koff [4]: 0.105 s⁻¹
kon [4]: 1.43e+06 M⁻¹ s⁻¹
ELISA, OD [6]: 0.1 OD
Substance: ch4-4-20 K334E, R292L (antibody)

ELISA, OD [9]: 0.4 OD
ELISA, OD [2]: 0.5 OD
Kd [3]: 94 nM
koff [3]: 0.094 s⁻¹
Kd [4]: 198 nM
Kd [10]: 61.4 nM
koff [10]: 0.085 s⁻¹
koff [7]: 0.0847 s⁻¹
Substance: chimeric 4-4-20 antibody, wild type Fc
